Results: publication doi:10.1101/2025.01.07.631770, “Backbone and Sidechain ^1H, ^15N and ^13C Resonance Assignments of a Multidrug Efflux Membrane Protein using Solution and Solid-State NMR” (bioRxiv, 2025)

Target: the molecule itself
Assay: solid-state NMR (13C-detected MAS, 2D NCA; two sets of peaks); S64V-EmrE in POPC proteoliposomes, 25:1 lipid/EmrE monomer, pH 5.8; 1.1 GHz, MAS 25 kHz, sample temperature 10 ± 5 °C

B1: S64V-EmrE (natural protein, E. coli, UniProt P23895 1-110, looked up)
chain: MNPYIYLGGAILAEVIGTTLMKFSEGFTRLWPSVGTIICYCASFWLLAQTLAYIPTGIAYAIWVGVGIVLISLLSWGFFGQRLDLPAIIGMMLICAGVLIINLLSRSTPH
notes: also called EmrE mutant S64V
- binding result: binds
